# Source: patent US20230203107A1, “PEPTIDE FOR TREATING SEPSIS DERIVED FROM RV3364C PROTEIN OF MYCOBACTERIUM TUBERCULOSIS” (priority 2021, published 2023)
# Biological target: T1, interaction between SNX9 and Rv3364c (Homo sapiens, UniProt Q9Y5X1)
# T1 construct: different regions 1-595, 1-250, 250-361, and 392-595 of SNX9; host or cells: 293 / HEK293T
# Format: cell-based
# T1 sequence (Q9Y5X1 whole entry): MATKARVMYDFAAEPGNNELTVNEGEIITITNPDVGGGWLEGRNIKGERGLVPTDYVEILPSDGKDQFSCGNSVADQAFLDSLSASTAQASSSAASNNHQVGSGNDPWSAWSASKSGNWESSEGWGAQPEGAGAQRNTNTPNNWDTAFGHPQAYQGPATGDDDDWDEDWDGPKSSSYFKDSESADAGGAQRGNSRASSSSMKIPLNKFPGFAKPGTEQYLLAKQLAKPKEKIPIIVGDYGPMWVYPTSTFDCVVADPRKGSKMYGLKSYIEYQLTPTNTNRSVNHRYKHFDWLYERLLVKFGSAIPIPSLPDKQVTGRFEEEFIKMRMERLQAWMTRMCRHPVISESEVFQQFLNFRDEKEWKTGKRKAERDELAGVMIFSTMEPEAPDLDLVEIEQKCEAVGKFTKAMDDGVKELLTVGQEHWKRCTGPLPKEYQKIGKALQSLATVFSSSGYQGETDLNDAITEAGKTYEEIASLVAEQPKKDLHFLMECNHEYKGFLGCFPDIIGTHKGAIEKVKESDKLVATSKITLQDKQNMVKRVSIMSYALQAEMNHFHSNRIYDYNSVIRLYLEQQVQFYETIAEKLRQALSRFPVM
Substance,"blocking of the interaction between SNX9 and Rv3364c (293 cells with Myc-SNX9 and Flag-Rv3364c, peptide 5 μM, 12 hours)",region of Rv3364c required for interaction with SNX9 (FIG. 5)
DWLVSKFARE [Tat-Rv3364c (11DWLVSKFARE20)],block the interaction between SNX9 and Rv3364c,
WLVSKF (Rv3364c(12-17 aa)) [12WLVSKF17],,minimum peptide essential for interaction with SNX9
